This passage reports EC50 (read off the curve) and Kd results from patent US20250109186A1.

The target in assay [1] is SARS-CoV-2 Omicron BA.1 spike ectodomain (residues 14-1207) with C-terminal His tag (SARS-CoV-2 Omicron BA.1 subvariant).
Assay [2] deals with SARS-CoV-2 Omicron XBB.1.5 spike ectodomain (residues 14-1207) with C-terminal His tag (SARS-CoV-2 Omicron XBB.1.5 subvariant).
Assay [3] has as its target SARS-CoV-2 Omicron XBB.1.5 RBD (residues 315-525) with C-terminal His tag (SARS-CoV-2 Omicron XBB.1.5 subvariant). In words: SPR (Biacore S200), CM5 chip, His-tagged proteins, 1:1 model. In general terms: SPR reads the build-up and loss of mass on a sensor chip optically.
Assay [4] deals with SARS-CoV-2 Omicron BA.1 RBD (residues 316-526) with C-terminal His tag (SARS-CoV-2 Omicron BA.1 subvariant). The description is as above.
For assay [5] the target is unchanged.

Numbering of substitutions follows the chain as printed. Where two headings read alike, the source gives them in different places.

B1: Nanosota-3A, HA- and His-double-tagged (VHH)
VHH: QVQLQESGGGLVQAGGSLRLSCAASGSIFSPNTMGWFRQALGKQREMVAVISSIASTQYANFVKGRFTITRDNTKNTVHLQMNSLIPEDTAVYYCYAVDKSQDYWGQGTQVTVSS
A word on the EC50 (read off the curve): it is the midpoint of the concentration-response curve. In assay [1], B1 registered an EC50 (read off the curve) of 0.1 µg/mL.

B2: Nanosota-3C with His6 tag and HA tag (VHH)
VHH: B1 VHH with M47G, V50F, Q58S, A60W, N61L, F62P
For orientation: Kd means the constant that tells how readily two partners part at equilibrium. In assay [2], B2 registered an EC50 (read off the curve) of 0.03 µg/mL. Further, the Kd amounted to 2.04 nM in assay [3] and 27.3 nM in assay [4].

B3: Nanosota-3A with C-terminal His tag (VHH)
VHH: B1 VHH
With B3, the Kd in assay [5] was 17.3 nM.

B4: Nanosota-3B, HA- and His-double-tagged (VHH)
VHH: B1 VHH with V50F, Q58S
For the molecule B4, in assay [1], the EC50 (read off the curve) worked out at 0.02 µg/mL.
